The data set has as its target human DNA polymerase beta (polβ) (Homo sapiens, UniProt P06746 1-335). Nature of the data set: X-ray crystallography; gapped binary complex, no incoming nucleotide; open conformation; 2.4 Å; Crystallization conditions not in material; kinetics (turnover only, not listed): 50 mM Tris-HCl pH 7.5, 5 mM MgCl2, 100 mM KCl, 80 nM DNA, 37°C.

Results on one molecule are retold here after PMC4117778.

B1: single-nucleotide gapped DNA with templating Fm7dG (crystal) (dsDNA)
DNA 1: CCGACGTCGCATCAGC
DNA 2: GCTGATGCGA
DNA 3: GTCGG
modifications: template G6 = 2'-fluoro-N7-methyl-2'-deoxyguanosine (Fm7dG); 5'-phosphate on downstream primer GTCGG
Turning to B1, the binding result was “binds”.
